Patent US20230279047A1

Assays:
[1] = molecular target: human polyclonal IgG (Gammanorm) (human); assay: DBC column, 6 min residence; ligand 9.7 mg/ml on agarose beads
[2] = molecular target: human polyclonal IgG (Gammanorm) (human); assay: as above; remark: listed apart in the source
[3] = molecular target: human polyclonal IgG (Gammanorm) (human); assay: DBC column, 6 min residence; ligand […] on agarose beads
[4] = molecular target: human polyclonal IgG (Gammanorm) (human); assay: DBC column, 6 min residence; ligand 7.0 mg/ml on agarose beads
IgG1 monoclonal antibody = assay: SPR (Biacore), ligand amine-coupled on CM5 chip, IgG1 mAb as probe
[5] = molecular target: human polyclonal IgG (Gammanorm) (human); assay: DBC column, 6 min residence; ligand 7.2 mg/ml on agarose beads
[6] = molecular target: human polyclonal IgG (Gammanorm) (human); assay: DBC column, 6 min residence; ligand […] on agarose beads; remark: listed apart in the source
[7] = molecular target: human polyclonal IgG (Gammanorm) (human); assay: DBC column, 6 min residence; ligand 10.8 mg/ml on agarose beads

**Q.** How did the Initial IgG capacity Qb10 [1] turn out when “Zvar(N11K,H18K,S33K,D37E,A42R,N43A,L44I,K50R,L51Y)4 (designed binder)” was run?
**A.** Its Initial IgG capacity Qb10 is 56.3 mg/mL.

**Q.** And the Initial IgG capacity Qb10 [2]?
**A.** Its Initial IgG capacity Qb10 is 62.1 mg/mL.

**Q.** For “Zvar(Q9A,N11E,N28A,N43A)4 (designed binder)”, which Initial IgG capacity Qb10 [3] is on record?
**A.** Its Initial IgG capacity Qb10 is 50 mg/mL.

**Q.** And the Initial IgG capacity Qb10 [4]?
**A.** The Initial IgG capacity Qb10 was 49.1 mg/mL.

**Q.** Which results are given for “Zvar(Q9A,N11E,Q40V,A42K,N43A,L44I)1 (designed binder)”?
**A.** Kd (IgG1 monoclonal antibody): 1.07 nM; koff (IgG1 monoclonal antibody): 0.000437 s⁻¹; kon (IgG1 monoclonal antibody): 410000 M⁻¹ s⁻¹

**Q.** What does the source list for “Zvar(Q9A,N11E,Q40V,A42K,N43A,L44I)4 (designed binder)”?
**A.** Initial IgG capacity Qb10 [5]: 49 mg/mL; Initial IgG capacity Qb10 [6]: 60.3 mg/mL; Initial IgG capacity Qb10 [3]: 56.3 mg/mL

**Q.** How did the Initial IgG capacity Qb10 [7] turn out when “Zvar(Q9A,N11K,H18K,D37E,A42R)4 (designed binder)” was run?
**A.** Its Initial IgG capacity Qb10 is 56.9 mg/mL.
